Experimental data taken from patent publication US20080241155A1 (Human Genome Sciences, published 2008).
Blank lines part the entries; values can stand above or below the binder they belong to.

Legend:
Fas ligand = biological target: T1, Fas ligand (UniProt P48023 130-281, limits assumed); assay: receptor-Fc / ligand co-precipitation, immunoblot
T1 construct: Detected by immunoblotting with an antibody to FasL (Pharmingen)
T1 sequence (looked up): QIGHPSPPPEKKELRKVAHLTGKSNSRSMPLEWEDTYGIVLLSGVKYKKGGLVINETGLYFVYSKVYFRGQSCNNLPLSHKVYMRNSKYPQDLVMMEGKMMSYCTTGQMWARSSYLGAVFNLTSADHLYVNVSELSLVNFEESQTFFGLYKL

[1] = biological target: T2, TNFα (tumor necrosis factor alpha) (UniProt P01375 77-233, limits assumed); assay: co-precipitation from mixed conditioned media with protein G-Sepharose, immunoblot
T2 construct: also called TNF alpha
T2 sequence (P01375 77-233 limits assumed): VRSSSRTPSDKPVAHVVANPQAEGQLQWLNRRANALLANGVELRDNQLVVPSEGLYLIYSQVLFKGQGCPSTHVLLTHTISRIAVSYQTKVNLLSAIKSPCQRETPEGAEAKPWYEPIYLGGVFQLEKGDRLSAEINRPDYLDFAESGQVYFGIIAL

[2] = biological target: T3, TRAIL (TNF-related apoptosis-inducing ligand), soluble (UniProt P50591 95-281, limits assumed); assay: receptor-Fc / ligand co-precipitation, immunoblot
T3 construct: also called Apo-2 ligand; Apo-2L
T3 sequence (P50591 95-281 limits assumed): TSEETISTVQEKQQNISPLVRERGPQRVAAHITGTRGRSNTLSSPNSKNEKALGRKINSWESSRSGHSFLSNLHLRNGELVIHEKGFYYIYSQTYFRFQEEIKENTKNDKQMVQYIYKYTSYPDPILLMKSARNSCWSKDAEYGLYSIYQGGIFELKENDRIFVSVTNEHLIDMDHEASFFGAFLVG

binding result (Fas ligand): no binding
B1: DR4-Fc (soluble extracellular ligand binding domain of DR4, amino acids 110 to 239, fused to the Fc portion of human IgG) (Fc fusion)
chain: TIKLHDQSIGTQQWEHSPLGELCPPGSHRSERPGACNRCTEGVGYTNASNNLFACLPCTACKSDEEERSPCTTTRNTACQCKPGTFRNDNSAEMCRKCSTGCPRGMVKVKDCTPWSDIECVHKESGNGHN
notes: Cloned into a modified pCMV1FLAG vector for in-frame fusion with human IgG Fc and expressed in 293 cells; used as conditioned medium; also called soluble extracellular DR4-Fc fusion; Fc-extracellular domain of DR4; not shown: Fc portion of human immunoglobulin (IgG)
binding result [1]: no binding

binding result [2]: no binding
B2: TNFR1-Fc (extracellular domain of TNFR-1 expressed as an Fc fusion) (Fc fusion, UniProt P19438 30-211, looked up)
chain: LVPHLGDREKRDSVCPQGKYIHPQNNSICCTKCHKGTYLYNDCPGPGQDTDCRECESGSFTASENHLRHCLSCSKCRKEMGQVEISSCTVDRDTVCGCRKNQYRHYWSENLFQCFNCSLCLNGTVHLSCQEKQNTVCTCHAGFFLRENECVSCSNCKKSLECTKLCLPQIENVKGTEDSGTT
notes: extracellular domain; not shown: Fc portion of human IgG

binding result [2]: no binding
B3: CD95-Fc (extracellular domain of CD-95 / Fas expressed as an Fc fusion) (Fc fusion, UniProt P25445 26-173, looked up)
chain: QVTDINSKGLELRKTVTTVETQNLEGLHHDGQFCHKPCPPGERKARDCTVNGDEPDCVPCQEGKEYTDKAHFSSKCRRCRLCDEGHGLEVEINCTRTQNTKCRCKPNFFCNSTVCEHCDPCTKCEHGIIKECTLTSNTKCKEEGSRSN
notes: extracellular domain; also called Fas-Fc; Fc-extracellular domain of Fas; not shown: Fc portion of human IgG
